Reference: patent US20260234738A1 (Regeneron, published 2026)
Substitutions are numbered along the chain they refer to.

B1: mAb10939 (antibody, V domains shown)
VH: EVQLVESGGGLVQPGGSLRLSCAASGLTVSSNYMNWVRQVPGKGLEWVSVIYSGGSKFYVDSVKGRFTISRHNSKNTLYLQMNSLRPEDTAVYYCTRDAQYYGMDVWGQGTTVTVSS
VL: DIQMTQSPSSLSASVGDRVTITCRASQSISTYLHWYQQKPGEAPKLLIYAASSLQSGVPSRFSGSGSGTDFTLTISSLQPEDFATYYCQQSYSTPPEIFGQGTKLEIKR
B2: mAb10938 (antibody, V domains shown)
VH: EVQLVESGGGLVQPGGSLRLSCAVSGFTVSSNYMSWVRQAPGKGLEWVSLIYSGGSTFYADSVKGRFTISRHNSKNTLYLQMNSLRAEDTAVYYCAREGGYSYDYNYWGQGTLVTVSS
VL: DIQMTQSPSSLSASVGDRVTITCQASQDIRNYLNWYQQKPGKAPKLLIYDASNLETGVPSRFSGIGSGTDFTFTISSLQPEDIATYYCQQYDNLPITFGQGTRLEIKR
B3: mAb10984 (antibody, V domains shown)
VH: EVQLVESGGGLVQPGGSLRLSCAASGLTVNRNYMSWVRQAPGKGLEWVSLIYSGGSTYYADSVKGRFTISRDNSKNTLYLQMNSLRLEDTAVYYCARGELGIPYGMDVWGQGTTVTVSS
VL: QSVLTQPPSVSAAPGQKVTISCSGSSSNIGNNYVSWYQQLPGTAPKLLIYDNNKRPSGIPDRFSGSKSGTSATLGITGLQTGDEADYYCGTWDSSLSAGVFGGGTKLTVLG
B4: mAb10930 (antibody, V domains shown)
VH: EVQLVESGGGLVQPGRSLRLSCAASGFTFDDYAMYWVRQAPGKGLEWVSGISWNSGSIGYADSVKGRFTISRDNAKNSLYLQMNSLRAADTALYYCAKDKDWNSRGYYYYGMDVWGQGTTVTVSS
VL: not shown
B5: mAb10989 (antibody, V domains shown)
VH: QVQLVQSGAEVKKPGASVKVSCKASGYIFTGYYMHWVRQAPGQGLEWMGWINPNSGGANYAQKFQGRVTLTRDTSITTVYMELSRLRFDDTAVYYCARGSRYDWNQNNWFDPWGQGTLVTVSS
VL: QSALTQPASVSGSPGQSITISCTGTSSDVGTYNYVSWYQQHPGKAPKLMIFDVSNRPSGVSDRFSGSKSGNTASLTISGLQAEDEADYYCSSFTTSSTVVFGGGTKLTVLG
B6: mAb10982 (antibody, V domains shown)
VH: EVQLVESGGGLVQPGGSLRLSCAASGLTVSSNYMSWVRQAPGKGLEWVSVIYSGGTTYYADSVKGRFTISRHNSKNTLSLQMNSLRAEDTAVYYCARGEGANYYGMDVWGQGTTVTVSS
VL: QSVLTQPPSVSGAPGQRVTISCTGSSSNIGTGYDVHWYQQLPGTAPKLLIYGNSNRPSGVPDRFSGSKSGTSASLAITGLQAEDEADYYCQSYDSSLSGYVVFGGGTKLTVLG
B7: mAb10985 (antibody, V domains shown)
VH: EVQLVESGGGLVQPGRSLRLSCAASGFTFDDYAMHWVRQAPGKGLEWVSGISWNRGSIGYADSVKGRFTISRDNAKNSLYLQMSSLRAEDTALYYCAKDGERWDSVVVPSARNGMDVWGQGTTVTVSS
VL: B6 VL with T31A, Y100S, V101Y, G105T, L109V
B8: mAb10986 (antibody, V domains shown)
VH: EVQLVESGGGLVQPGGSLRLSCAASEFTVSSNYMSWVRQAPGKGLEWVSVIYSGGSTFYADSVKGRFTISRDNSKNTLYLQMNSLRAEDTAVYYCARALPYGDLHFDYWGQGTLVTVSS
VL: B6 VL with S54T, G99D, Y100S, V101Y, G105T, L109V

The binders below were run against SARS-COV-2 RBD extracellular domain expressed with a C-terminal mouse IgG2a (SARS-CoV-2).

Going from B1 to B2, the Kd falls from 38.7 pM to ≤ 32.2 pM. The second binds more tightly here.

B3 and B4 cannot be ordered by Kd: ≤ 24.9 pM for the first, ≤ 43.1 pM for the second.

Compared with B6, B7 is 4.6-fold lower in Kd: 54.4 pM for the first, 11.7 pM for the second. The second binds more tightly here.

B8 was tested, and the Kd was ≤ 15.8 pM.

Compared with B1, B4 is lower in koff: 1.15e-05 s⁻¹ for the first, ≤ 1e-05 s⁻¹ for the second.

For B6, the koff was 1.69e-05 s⁻¹.

B1 and B4 are within 1.5-fold of each other in kon: 299000 M⁻¹ s⁻¹ for the first, 232000 M⁻¹ s⁻¹ for the second.

B6 showed a kon of 310000 M⁻¹ s⁻¹.

Compared with B1, B2 is higher in t½: 16.7 h for the first, ≥ 19.2 h for the second.

B3 and B4 cannot be ordered by t½: ≥ 19.2 h for the first, ≥ 19.2 h for the second.

Going from B5 to B6, the t½ rises from 2.07 h to 11.4 h (5.5-fold).

Compared with B7, B8 is higher in t½: 15.2 h for the first, ≥ 19.2 h for the second.
